Results taken from PMC7954794, “Protein context shapes the specificity of SH3 domain-mediated interactions in vivo” (Nature Communications, 2021).

Test system: growth of yeast strains under 51 stress conditions
Test: Growth assays in 51 stress conditions (Fig. 1E-F, S2D, S5B)
Assay type: cell-based, Saccharomyces cerevisiae
Design: key to Growth (Fig. S2D) / growth of ABP1 SH3-swapped strains in stress condition: log2 colony size, average of median per strain (growth score)
Conditions: ABP1 SH3-swapped strains
Summary of the method: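 Yeast WT, SH3-deleted, KO, SH3-swapped and SH3-shuffled strains pinned in 1536 format, 12 replicates each; pregrown on YPD 2 days at 30 °C, then replicated onto 51 media at 37 °C and imaged every 2 h. Growth score = mean of per-plate median log2 colony size at 74 h.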

B1: MYO5 (protein, UniProt Q04439 1-1219, looked up)
Myosin-5: MAILKRGARKKVHQEPAKRSANIKKATFDSSKKKEVGVSDLTLLSKISDEAINENLKKRFLNATIYTYIGHVLISVNPFRDLGIYTDAVMNEYKGKNRLEVPPHVFAIAESMYYNMKSYNENQCVIISGESGAGKTEAAKRIMQYIAAASSTHTESIGKIKDMVLATNPLLESFGCAKTLRNNNSSRHGKYLEIKFNNQFEPCAGNITNYLLEKQRVVSQIKNERNFHIFYQFTKGASDAYRQTFGVQKPEQYVYTAAAGCISAETIDDLQDYQETLKAMRVIGLGQEEQDQIFRMLAAILWIGNVSFIENEEGNAQVRDTSVTDFVAYLLQIDSQLLIKSLVERIMETNHGMKRGSVYHVPLNIVQADAVRDALAKAIYNNLFDWIVSRVNKSLQAFPGAEKSIGILDIYGFEIFEHNSFEQICINYVNEKLQQIFIQLTLKSEQETYEREKIQWTPIKYFDNKVVCDLIEARRPPGIFAAMNDSVATAHADSNAADQAFAQRLNLFTTNPHFDLRSNKFVIKHYAGDVTYDIDGITDKNKDQLQKDLVELIGTTTNTFLATIFPDTVDRESKRRPPTAGDKIIKSANDLVETLSKAQPSYIRTIKPNETKSPNDYDDRQVLHQIKYLGLQENVRIRRAGFAYRQVFEKFVERFYLLSPHCSYAGDYTWQGDTLDAVKYILQDSSIPQQEYQLGVTSVFIKTPETLFALEHMRDRYWHNMAARIQRAWRRFLQRRIDAATKIQRTIRERKEGNKYEKLRDYGTKVLGGRKERRSMSLLGYRAFMGDYLSCNESKSKGAYIKRQVSIKEKVIFSIHGEALHTKFGRSAQRLKKTFLLTPTTLYIVGQTLVQNAMTYTQDYKIDVRNIQAVSLTNLQDDWVAIKLASSGQPDPLINTYFKTELITHLKRLNDKIQIKIGSAIEYQKKPGKLHSVKCQINESAPKYGDIYKSSTISVRRGNPPNSQVHKKPRKKSSISSGYHASSSQATRRPVSIAAAQHVPTAPASRHSKKPAPPPPGMQNKAATRRSVPNPASTLTASQSNARPSPPTAATRATPAATPAAAAMGSGRQANIPPPPPPPPPSSKPKEPMFEAAYDFPGSGSPSELPLKKGDVIYITREEPSGWSLGKLLDGSKEGWVPTAYMKPHSGNNNIPTPPQNRDVPKPVLNSVQHDNTSANVIPAAAQASLGDGLANALAARANKMRLESDDEEANEDEEEDDW
Growth (Fig. S2D) (Bathophenanthroline.0.1uM): 10.7807 | Growth (Fig. S2D) (Bathophenanthroline.10uM): 10.5943 | Growth (Fig. S2D) (Bathophenanthroline.1uM): 10.7288 | Growth (Fig. S2D) (CaCl2.100mM): 10.8763 | Growth (Fig. S2D) (CaCl2.250mM): 10.7748 | Growth (Fig. S2D) (CaCl2.500mM): 10.1951 | Growth (Fig. S2D) (Caffein.10mM): 10.0771 | Growth (Fig. S2D) (Caffein.2mM): 10.9616 | Growth (Fig. S2D) (CdCl2.100uM): 9.383 | Growth (Fig. S2D) (CdCl2.10uM): 10.8746 | Growth (Fig. S2D) (CdCl2.50uM): 9.758 | Growth (Fig. S2D) (CuSO4.1mM): 10.0515 | Growth (Fig. S2D) (CuSO4.5mM): 7.47 | Growth (Fig. S2D) (Cycloheximide.0.05.uM): 11.0185 | Growth (Fig. S2D) (Cycloheximide.0.2.uM): 10.5753 | Growth (Fig. S2D) (Cycloheximide.0.5.uM): 10.0157 | Growth (Fig. S2D) (DMSO.2.): 11.0566 | Growth (Fig. S2D) (DMSO.6.): 9.912 | Growth (Fig. S2D) (DMSO.8.): 9.351 | Growth (Fig. S2D) (Ethanol.2.): 10.6973 | Growth (Fig. S2D) (Ethanol.6.): 10.1096 | Growth (Fig. S2D) (Ethanol.8.): 9.896 | Growth (Fig. S2D) (Galactose.2.): 10.7371 | Growth (Fig. S2D) (Glycerol.2.): 8.938 | Growth (Fig. S2D) (Hydroxyurea.25mM): 10.701 | Growth (Fig. S2D) (Hygromycin.190uM): 10.9824 | Growth (Fig. S2D) (Hygromycin.19uM): 10.9737 | Growth (Fig. S2D) (Hygromycin.95uM): 11.0723 | Growth (Fig. S2D) (MMS.0.004.): 10.9048 | Growth (Fig. S2D) (MMS.0.02.): 10.5139 | Growth (Fig. S2D) (MMS.0.04.): 9.517 | Growth (Fig. S2D) (Menadione.100uM): 10.5627 | Growth (Fig. S2D) (Menadione.200uM): 10.4133 | Growth (Fig. S2D) (Menadione.50uM): 10.7993 | Growth (Fig. S2D) (NaCl.0.25M): 10.7283 | Growth (Fig. S2D) (NaCl.1M): 9.177 | Growth (Fig. S2D) (Nitroquinoline.10uM): 10.6793 | Growth (Fig. S2D) (Nitroquinoline.50uM): 10.4598 | Growth (Fig. S2D) (Nystatin.0.01uM): 11.0134 | Growth (Fig. S2D) (Nystatin.0.1uM): 10.9398 | Growth (Fig. S2D) (Raffinose.2.): 10.9979 | Growth (Fig. S2D) (Rapamycin.10nM): 9.833 | Growth (Fig. S2D) (Rapamycin.50nM): 9.517 | Growth (Fig. S2D) (SC.pH3): 10.3672 | Growth (Fig. S2D) (SC.pH6): 10.9549 | Growth (Fig. S2D) (SDS.0.01.): 10.9651 | Growth (Fig. S2D) (SDS.0.02.): 10.9575 | Growth (Fig. S2D) (SDS.0.05.): 10.8115 | Growth (Fig. S2D) (Sorbitol.10mM): 10.9933 | Growth (Fig. S2D) (Sorbitol.1mM): 11.0521 | Growth (Fig. S2D) (Sorbitol.5mM): 10.9248

B2: PEX13 (protein, UniProt P80667 1-386, looked up)
Peroxisomal membrane protein …: MSSTAVPRPKPWETSASLEEPQRNAQSLSAMMTSNQQDSRPTEESNNSNSASESAPEVLPRPAALNSSGTYGESNTIPGIYGNSNYGIPYDNNPYSMNSIYGNSIGRYGYGGSYYGNNYGSFYGGGYGAGAGYGMNNGSGLGESTKATFQLIESLIGAVTGFAQMLESTYMATHNSFFTMISVAEQFGNLKEMLGSFFGIFAIMKFLKKILYRATKGRLGIPPKNFAESEGSKNKLIEDFQKFNDSGTINSNEKATRRKISWKPLLFFLMAVFGFPYLLNKFITKLQTSGTIRASQGNGSEPIDPSKLEFARALYDFVPENPEMEVALKKGDLMAILSKKDPLGRDSDWWKVRTKNGNIGYIPYNYIEIIKRRKKIEHVDDETRTH
Growth (Fig. S2D) (Bathophenanthroline.0.1uM): 10.7929 | Growth (Fig. S2D) (Bathophenanthroline.10uM): 10.6448 | Growth (Fig. S2D) (Bathophenanthroline.1uM): 10.7999 | Growth (Fig. S2D) (CaCl2.100mM): 10.8263 | Growth (Fig. S2D) (CaCl2.250mM): 10.7201 | Growth (Fig. S2D) (CaCl2.500mM): 10.3034 | Growth (Fig. S2D) (Caffein.10mM): 10.0127 | Growth (Fig. S2D) (Caffein.2mM): 10.9279 | Growth (Fig. S2D) (CdCl2.100uM): 9.606 | Growth (Fig. S2D) (CdCl2.10uM): 10.8888 | Growth (Fig. S2D) (CdCl2.50uM): 9.97 | Growth (Fig. S2D) (CuSO4.1mM): 10.4898 | Growth (Fig. S2D) (CuSO4.5mM): 8.152 | Growth (Fig. S2D) (Cycloheximide.0.05.uM): 11.0541 | Growth (Fig. S2D) (Cycloheximide.0.2.uM): 10.6387 | Growth (Fig. S2D) (Cycloheximide.0.5.uM): 10.1719 | Growth (Fig. S2D) (DMSO.2.): 11.0404 | Growth (Fig. S2D) (DMSO.6.): 10.0301 | Growth (Fig. S2D) (DMSO.8.): 9.367 | Growth (Fig. S2D) (Ethanol.2.): 10.7664 | Growth (Fig. S2D) (Ethanol.6.): 10.3235 | Growth (Fig. S2D) (Ethanol.8.): 10.0926 | Growth (Fig. S2D) (Galactose.2.): 10.787 | Growth (Fig. S2D) (Glycerol.2.): 9.849 | Growth (Fig. S2D) (Hydroxyurea.25mM): 10.7235 | Growth (Fig. S2D) (Hygromycin.190uM): 10.9621 | Growth (Fig. S2D) (Hygromycin.19uM): 10.9745 | Growth (Fig. S2D) (Hygromycin.95uM): 11.0265 | Growth (Fig. S2D) (MMS.0.004.): 10.9502 | Growth (Fig. S2D) (MMS.0.02.): 10.7047 | Growth (Fig. S2D) (MMS.0.04.): 10.0276 | Growth (Fig. S2D) (Menadione.100uM): 10.6371 | Growth (Fig. S2D) (Menadione.200uM): 10.4195 | Growth (Fig. S2D) (Menadione.50uM): 10.8434 | Growth (Fig. S2D) (NaCl.0.25M): 10.6874 | Growth (Fig. S2D) (NaCl.1M): 9.71 | Growth (Fig. S2D) (Nitroquinoline.10uM): 10.7399 | Growth (Fig. S2D) (Nitroquinoline.50uM): 10.726 | Growth (Fig. S2D) (Nystatin.0.01uM): 11.0207 | Growth (Fig. S2D) (Nystatin.0.1uM): 11.0033 | Growth (Fig. S2D) (Raffinose.2.): 10.9918 | Growth (Fig. S2D) (Rapamycin.10nM): 9.862 | Growth (Fig. S2D) (Rapamycin.50nM): 9.428 | Growth (Fig. S2D) (SC.pH3): 10.3898 | Growth (Fig. S2D) (SC.pH6): 10.9788 | Growth (Fig. S2D) (SDS.0.01.): 10.9752 | Growth (Fig. S2D) (SDS.0.02.): 10.9697 | Growth (Fig. S2D) (SDS.0.05.): 10.895 | Growth (Fig. S2D) (Sorbitol.10mM): 10.9735 | Growth (Fig. S2D) (Sorbitol.1mM): 11.0343 | Growth (Fig. S2D) (Sorbitol.5mM): 10.9175
